Results taken from the RNAGym collection of RNA variant scans (doi:10.1073/pnas.2313332121).

B1: TPR t1 (parent)
chain: GACCAAUCUGCCCUCAGAGCUCGAGAACAUCUUCGGAUGCAGAGGAGGCAGGCUUCGGUGGCGCGAUAGCGCCAACGUCCUCAACCUCCAAUGCAUCCCACCACAUGAUGAUGCCUGAAGAGCCUUGGUUUUUUG

Variants of: B1
Experiment: polymerase ribozyme fitness, log enrichment relative to wild type (log ratio); higher = more active; in vitro selection for triplet polymerase activity
Method in brief: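 To select mutant libraries of each subunit of a heterodimeric triplet polymerase ribozyme, built by PCR and transcribed, each was annealed with a biotinylated primer, partner subunit and triplets, then incubated frozen at −7 °C. Extended constructs were gel-excised, captured on streptavidin beads and amplified by RT-PCR, in one round carried out in triplicate. Illumina sequencing of input and output libraries kept genotypes with ≥10 input reads and ≥1 read per output. Fitness is the base-2 logarithm of genotype enrichment relative to wild-type enrichment, from inverse-variance-weighted replicate averages.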
For A41U C53U C73A G120U, the “polymerase ribozyme fitness (log ratio)” value was -2.14.
For G42A C73U, the “polymerase ribozyme fitness (log ratio)” value was -1.61.
In the case of A41C C70A A118U, the “polymerase ribozyme fitness (log ratio)” value is reported as -2.8.
With A41U G63U the “polymerase ribozyme fitness (log ratio)” value was -2.33.
In the case of A41U C53A C115A, the “polymerase ribozyme fitness (log ratio)” value is reported as -1.03.
In the case of G42A A66U C79U, the “polymerase ribozyme fitness (log ratio)” value is reported as -3.79.
With C40G A43C A111C A119G the “polymerase ribozyme fitness (log ratio)” value was -4.45.
In the case of C40G C124U, the “polymerase ribozyme fitness (log ratio)” value is reported as 0.744.
With C40G G60U the “polymerase ribozyme fitness (log ratio)” value was -0.737.
With A41C the “polymerase ribozyme fitness (log ratio)” value was -0.956.
In the case of A41G, the “polymerase ribozyme fitness (log ratio)” value is reported as -0.0621.
With A41U the “polymerase ribozyme fitness (log ratio)” value was -1.14.
For A41C C101A G120C, the “polymerase ribozyme fitness (log ratio)” value was -1.45.
For G39U U106C, the “polymerase ribozyme fitness (log ratio)” value was -0.461.
For A41G G51U C114G, the “polymerase ribozyme fitness (log ratio)” value was -5.83.
With G42A G44U C70U C76U the “polymerase ribozyme fitness (log ratio)” value was -4.28.
For C40A A41U G69U G135C, the “polymerase ribozyme fitness (log ratio)” value was -0.488.
In the case of C40U A74C G120A U131C, the “polymerase ribozyme fitness (log ratio)” value is reported as 0.155.
For G39U G120A, the “polymerase ribozyme fitness (log ratio)” value was -0.0767.
For A41C G71U C98U C114A, the “polymerase ribozyme fitness (log ratio)” value was -5.3.
In the case of A41U C123G, the “polymerase ribozyme fitness (log ratio)” value is reported as 0.0535.
For C40A C72G U78C A121G U132A, the “polymerase ribozyme fitness (log ratio)” value was 0.388.
For A41U G45C G60A C62U, the “polymerase ribozyme fitness (log ratio)” value was -2.39.
For A41U G71C, the “polymerase ribozyme fitness (log ratio)” value was -3.84.
With C40A G61U G93U A100C the “polymerase ribozyme fitness (log ratio)” value was -1.18.
For A41G C49G G58U C79A, the “polymerase ribozyme fitness (log ratio)” value was -6.14.
In the case of A41C G63C, the “polymerase ribozyme fitness (log ratio)” value is reported as -2.4.
In the case of A41U G113A, the “polymerase ribozyme fitness (log ratio)” value is reported as -1.81.
For C40G G71U C79A, the “polymerase ribozyme fitness (log ratio)” value was -2.32.
In the case of A41U G69C, the “polymerase ribozyme fitness (log ratio)” value is reported as -4.05.
With G42A G63U the “polymerase ribozyme fitness (log ratio)” value was -3.48.
In the case of C40A G48U, the “polymerase ribozyme fitness (log ratio)” value is reported as -1.61.
In the case of C40A U78A C79U U109A, the “polymerase ribozyme fitness (log ratio)” value is reported as -6.14.
In the case of C40U G48A C53A G113C, the “polymerase ribozyme fitness (log ratio)” value is reported as -2.73.
In the case of A41U C89U, the “polymerase ribozyme fitness (log ratio)” value is reported as -1.32.
For G42A A111G G113C A121C, the “polymerase ribozyme fitness (log ratio)” value was -0.948.
For G42A U129A, the “polymerase ribozyme fitness (log ratio)” value was -3.37.
With A41U U55G A91U C101G the “polymerase ribozyme fitness (log ratio)” value was -4.09.
In the case of A41C G63C A105G, the “polymerase ribozyme fitness (log ratio)” value is reported as -5.05.
For C40U A41C C56A C114A, the “polymerase ribozyme fitness (log ratio)” value was -2.89.
In the case of C40U C70A G128A, the “polymerase ribozyme fitness (log ratio)” value is reported as -4.95.
With G42A U96A the “polymerase ribozyme fitness (log ratio)” value was -2.83.
For A41G G117U, the “polymerase ribozyme fitness (log ratio)” value was -2.99.
With C40U C53G the “polymerase ribozyme fitness (log ratio)” value was 0.608.
In the case of C40U C53A, the “polymerase ribozyme fitness (log ratio)” value is reported as 0.0513.
For C40G G45U C88G U92A, the “polymerase ribozyme fitness (log ratio)” value was -4.08.
In the case of A41U G60U U78A A95G U126A, the “polymerase ribozyme fitness (log ratio)” value is reported as -4.53.
With A41G G69C the “polymerase ribozyme fitness (log ratio)” value was -1.9.
In the case of C40U G52U, the “polymerase ribozyme fitness (log ratio)” value is reported as -1.14.
For C40G C49G G61U U87G U129A, the “polymerase ribozyme fitness (log ratio)” value was -2.49.
For A41U C70U A84U U116C C124U U130A, the “polymerase ribozyme fitness (log ratio)” value was -5.57.
For C40A A74G U130C, the “polymerase ribozyme fitness (log ratio)” value was -0.804.
In the case of C40A G60A G110C, the “polymerase ribozyme fitness (log ratio)” value is reported as -6.85.
In the case of G42A G44U C53A U55A G127C, the “polymerase ribozyme fitness (log ratio)” value is reported as -3.14.
In the case of A41U C53G C62G G113C, the “polymerase ribozyme fitness (log ratio)” value is reported as -6.56.
For A41U C115U G127A, the “polymerase ribozyme fitness (log ratio)” value was -3.9.
In the case of C40G G61C G69U, the “polymerase ribozyme fitness (log ratio)” value is reported as -2.88.
In the case of A41U C73G A90C C114U G128A, the “polymerase ribozyme fitness (log ratio)” value is reported as -5.13.
With G42A C72G C89G the “polymerase ribozyme fitness (log ratio)” value was -3.84.
With A41C C114G the “polymerase ribozyme fitness (log ratio)” value was -1.19.
With C40A U92G the “polymerase ribozyme fitness (log ratio)” value was -2.37.
In the case of C40U G58C, the “polymerase ribozyme fitness (log ratio)” value is reported as -0.23.
For A41U G63A C86G C101U, the “polymerase ribozyme fitness (log ratio)” value was -4.01.
With A41U A105C the “polymerase ribozyme fitness (log ratio)” value was -5.02.
In the case of G42A C72G C88G, the “polymerase ribozyme fitness (log ratio)” value is reported as -3.92.
In the case of C40A G61C U126G, the “polymerase ribozyme fitness (log ratio)” value is reported as -5.2.
In the case of A41C G61U G93C, the “polymerase ribozyme fitness (log ratio)” value is reported as -1.3.
In the case of C40G C72G U92A G113U, the “polymerase ribozyme fitness (log ratio)” value is reported as -4.69.
For G42A C72A C114U, the “polymerase ribozyme fitness (log ratio)” value was -2.37.
For C40G A74G C86A, the “polymerase ribozyme fitness (log ratio)” value was -1.94.
For A41C C70G U78C, the “polymerase ribozyme fitness (log ratio)” value was -5.64.
For G42A U55C, the “polymerase ribozyme fitness (log ratio)” value was -2.24.
For C40U A95U G117C A121C, the “polymerase ribozyme fitness (log ratio)” value was -5.49.
With G39U G113A the “polymerase ribozyme fitness (log ratio)” value was -1.25.
In the case of G42A C79G G113A, the “polymerase ribozyme fitness (log ratio)” value is reported as -4.19.
In the case of G42A A83U, the “polymerase ribozyme fitness (log ratio)” value is reported as -2.65.
In the case of A41G G63U, the “polymerase ribozyme fitness (log ratio)” value is reported as -2.37.
For C40G C64U, the “polymerase ribozyme fitness (log ratio)” value was -1.16.
With C40U A41C C76U U112A G122A the “polymerase ribozyme fitness (log ratio)” value was -3.19.
For C40U U78G C85G, the “polymerase ribozyme fitness (log ratio)” value was -2.08.
With A41C C88U U92C C104U A111C U125G U132C the “polymerase ribozyme fitness (log ratio)” value was -4.35.
With C40U C73A the “polymerase ribozyme fitness (log ratio)” value was -0.621.
With A41C G51U A121G the “polymerase ribozyme fitness (log ratio)” value was -3.12.
